# Data from article doi:10.1101/2023.12.21.572918 (bioRxiv, 2023).
# Molecular target: full length native GPC (strain Josiah) expressed on HEK293 cells (Lassa virus, strain Josiah, UniProt P08669)
# Test: flow cytometry on cells
# Settings: one partner purified
# full length native GPC (strain Josiah) expressed on HEK293 cells, sequence (P08669 whole entry, looked up): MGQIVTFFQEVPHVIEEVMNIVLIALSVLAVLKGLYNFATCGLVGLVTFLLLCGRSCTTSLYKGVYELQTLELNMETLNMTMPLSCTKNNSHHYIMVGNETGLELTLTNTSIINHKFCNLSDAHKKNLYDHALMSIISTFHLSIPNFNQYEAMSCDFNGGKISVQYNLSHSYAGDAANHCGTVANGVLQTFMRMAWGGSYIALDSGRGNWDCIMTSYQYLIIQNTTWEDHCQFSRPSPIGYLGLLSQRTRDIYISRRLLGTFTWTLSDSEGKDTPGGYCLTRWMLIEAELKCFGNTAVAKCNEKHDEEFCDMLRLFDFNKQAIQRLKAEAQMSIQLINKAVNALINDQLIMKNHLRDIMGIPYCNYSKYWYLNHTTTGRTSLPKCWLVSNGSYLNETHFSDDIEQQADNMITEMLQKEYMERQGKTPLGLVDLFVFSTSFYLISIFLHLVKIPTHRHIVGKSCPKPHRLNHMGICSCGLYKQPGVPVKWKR
binder,measurement,value
"25.10C IgG (antibody, V domains shown) VH: QVQLQESGGGLVKPGGSLRLSCTASGFNFNKYNMNWVRQAPGKGLEWVSSISALSTYIYYADSLKGRFTVSRDNAKNSLFLQMNSLRDDDTAVYYCAREIRRASTWSADLWGRGTLVTVSS VL: DIQMTQSPSSLSASVGDRVIITCRASQSISSSLNWYQQKPGKAPKLLIYAAVNLETGVPSRFSGSGFGTDFTLAISNVQPEDFATYYCQQSDTRTFGRGTKLDVK",binding result,binds
